Data published in patent US20070059314A1.

Molecular target: VEGF165 (UniProt P15692)
Assay: cell-based or functional assay

VEGF165, sequence (P15692 other isoform, or with tags, fused parts or gaps limits assumed): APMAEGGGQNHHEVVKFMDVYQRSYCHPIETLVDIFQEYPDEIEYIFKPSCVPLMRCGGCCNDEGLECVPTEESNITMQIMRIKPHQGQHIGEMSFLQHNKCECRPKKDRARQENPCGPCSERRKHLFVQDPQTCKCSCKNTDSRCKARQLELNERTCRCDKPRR

C-terminal fragment of the NOV protein (amino acids 188 to 357) (from UniProt P48745 188-357)
HUAEC cell proliferation induced by 2 ng/ml VEGF165 (crystal violet, OD 595 nm): 200 ng/mL
